Assay results: paper PMC9482650, “Quantitative fragmentomics allow affinity mapping of interactomes” (Nature Communications, 2022)
Substitutions are numbered along the chain they refer to.

B1: FAM110B, Q8TC76 (peptide)
chain: ARESQKVSHV
B2: SCN5A, Q14524 (peptide)
chain: SPDRDRESIV

Molecular target: T1, TX1BP3, O14907
T1 sequence (O14907 10-122, limits assumed, looked up): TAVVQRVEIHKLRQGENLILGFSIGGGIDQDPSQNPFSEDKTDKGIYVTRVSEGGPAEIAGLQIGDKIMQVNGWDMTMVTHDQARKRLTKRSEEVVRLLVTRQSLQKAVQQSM
Assay: holdup assay
Parameters: key: below the threshold = too weak to quantify, mostly under pKd 3.1 to 4
Conditions: plain residues with an end cap or a label only (N-terminal biotin on a linker: ado-ado)

| Binder | pKd |
| --- | --- |
| B1 | 4.9 |
| B2 | 4.5 |

Molecular target: T2, MPDZ_5, O75970
T2 sequence (O75970 695-796, limits assumed, looked up): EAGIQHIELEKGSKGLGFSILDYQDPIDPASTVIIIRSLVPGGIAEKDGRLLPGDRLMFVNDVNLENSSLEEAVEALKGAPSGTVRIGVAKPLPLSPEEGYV
Assay: holdup assay
Parameters: key: below the threshold = too weak to quantify, mostly under pKd 3.1 to 4
Conditions: plain residues with an end cap or a label only (N-terminal biotin on a linker: ado-ado)

| Binder | pKd |
| --- | --- |
| B1 | below the threshold |
| B2 | below the threshold |

Molecular target: FRMPD2_2, Q68DX3
Assay: holdup assay
Parameters: key: below the threshold = too weak to quantify, mostly under pKd 3.1 to 4
Conditions: plain residues with an end cap or a label only (N-terminal biotin on a linker: ado-ado)

Chain of FRMPD2_2, Q68DX3 (Q68DX3 944-1038): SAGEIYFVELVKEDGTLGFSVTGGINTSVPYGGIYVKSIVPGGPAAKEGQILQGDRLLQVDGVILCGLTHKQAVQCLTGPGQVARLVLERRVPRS

| Binder | pKd |
| --- | --- |
| B1 | 4.31 |
| B2 | 3.76 |

Molecular target: T3, NHERF3_4, Q5T2W1
T3 sequence (Q5T2W1 373-468, limits assumed, looked up): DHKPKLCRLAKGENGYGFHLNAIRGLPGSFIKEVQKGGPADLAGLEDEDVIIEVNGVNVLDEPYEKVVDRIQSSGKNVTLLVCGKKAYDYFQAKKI
Assay: holdup assay
Parameters: key: below the threshold = too weak to quantify, mostly under pKd 3.1 to 4
Conditions: plain residues with an end cap or a label only (N-terminal biotin on a linker: ado-ado)

| Binder | pKd |
| --- | --- |
| B1 | below the threshold |
| B2 | below the threshold |

Molecular target: PTPN3, P26045
Assay: holdup assay
Parameters: key: below the threshold = too weak to quantify, mostly under pKd 3.1 to 4
Conditions: plain residues with an end cap or a label only (N-terminal biotin on a linker: ado-ado)

Chain of PTPN3, P26045 (P26045 505-587): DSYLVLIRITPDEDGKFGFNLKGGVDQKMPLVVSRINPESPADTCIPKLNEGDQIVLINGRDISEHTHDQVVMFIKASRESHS

| Binder | pKd |
| --- | --- |
| B1 | 4.51 |
| B2 | 4.78 |

Molecular target: DLG4_1, P78352
Assay: holdup assay
Parameters: key: below the threshold = too weak to quantify, mostly under pKd 3.1 to 4
Conditions: plain residues with an end cap or a label only (N-terminal biotin on a linker: ado-ado)

Chain of DLG4_1, P78352 (P78352 62-152): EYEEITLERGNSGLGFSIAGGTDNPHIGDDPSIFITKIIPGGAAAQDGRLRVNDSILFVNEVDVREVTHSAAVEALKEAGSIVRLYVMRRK

| Binder | pKd |
| --- | --- |
| B1 | 4.06 |
| B2 | 4.46 |

Molecular target: T4, APBA2_2, Q99767
T4 sequence (Q99767 654-744, limits assumed, looked up): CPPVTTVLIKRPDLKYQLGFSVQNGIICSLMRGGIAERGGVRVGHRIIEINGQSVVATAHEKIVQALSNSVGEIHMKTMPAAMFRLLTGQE
Assay: holdup assay
Parameters: key: below the threshold = too weak to quantify, mostly under pKd 3.1 to 4
Conditions: plain residues with an end cap or a label only (N-terminal biotin on a linker: ado-ado)

| Binder | pKd |
| --- | --- |
| B1 | below the threshold |
| B2 | below the threshold |

Molecular target: T5, SIPA1L2, Q9P2F8
T5 sequence (Q9P2F8 945-1036, limits assumed, looked up): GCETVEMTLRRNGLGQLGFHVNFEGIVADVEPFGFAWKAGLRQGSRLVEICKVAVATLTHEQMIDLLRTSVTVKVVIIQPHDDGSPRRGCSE
Assay: holdup assay
Parameters: key: below the threshold = too weak to quantify, mostly under pKd 3.1 to 4
Conditions: plain residues with an end cap or a label only (N-terminal biotin on a linker: ado-ado)

| Binder | pKd |
| --- | --- |
| B1 | below the threshold |
| B2 | below the threshold |

Molecular target: Inadl_4, Q8NI35
Assay: holdup assay
Parameters: key: below the threshold = too weak to quantify, mostly under pKd 3.1 to 4
Conditions: plain residues with an end cap or a label only (N-terminal biotin on a linker: ado-ado)

Chain of Inadl_4, Q8NI35 (Q8NI35 547-651): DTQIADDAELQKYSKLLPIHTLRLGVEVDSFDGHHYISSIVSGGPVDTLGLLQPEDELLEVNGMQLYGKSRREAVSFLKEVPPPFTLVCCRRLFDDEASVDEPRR

| Binder | pKd |
| --- | --- |
| B1 | below the threshold |
| B2 | below the threshold |

Molecular target: T6, LIN7B, Q9HAP6
T6 sequence (Q9HAP6 88-185, limits assumed, looked up): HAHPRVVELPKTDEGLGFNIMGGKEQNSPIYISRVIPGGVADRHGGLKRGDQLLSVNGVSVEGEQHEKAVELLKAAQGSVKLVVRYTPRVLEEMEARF
Assay: holdup assay
Parameters: key: below the threshold = too weak to quantify, mostly under pKd 3.1 to 4
Conditions: plain residues with an end cap or a label only (N-terminal biotin on a linker: ado-ado)

| Binder | pKd |
| --- | --- |
| B1 | below the threshold |
| B2 | below the threshold |

Molecular target: CASK, O14936
Assay: holdup assay
Parameters: key: below the threshold = too weak to quantify, mostly under pKd 3.1 to 4
Conditions: plain residues with an end cap or a label only (N-terminal biotin on a linker: ado-ado)

Chain of CASK, O14936 (O14936 487-570): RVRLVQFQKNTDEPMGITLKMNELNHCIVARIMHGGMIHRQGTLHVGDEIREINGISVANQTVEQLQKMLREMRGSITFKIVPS

| Binder | pKd |
| --- | --- |
| B1 | below the threshold |
| B2 | below the threshold |

Molecular target: T7, APBA1_2, Q02410
T7 sequence (Q02410 742-832, limits assumed, looked up): T4 sequence (Q99767 654-744, limits assumed, looked up) with K10R, K15R, A59P, Q65H, A66I, S70A, F84Y, G89A
Assay: holdup assay
Parameters: key: below the threshold = too weak to quantify, mostly under pKd 3.1 to 4
Conditions: plain residues with an end cap or a label only (N-terminal biotin on a linker: ado-ado)

| Binder | pKd |
| --- | --- |
| B1 | 4.41 |
| B2 | 3.55 |

Molecular target: T8, PDZD7_3, Q9H5P4
T8 sequence (Q9H5P4 857-944, limits assumed, looked up): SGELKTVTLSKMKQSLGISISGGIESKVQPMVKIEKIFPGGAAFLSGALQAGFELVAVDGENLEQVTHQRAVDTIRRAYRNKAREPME
Assay: holdup assay
Parameters: key: below the threshold = too weak to quantify, mostly under pKd 3.1 to 4
Conditions: plain residues with an end cap or a label only (N-terminal biotin on a linker: ado-ado)

| Binder | pKd |
| --- | --- |
| B1 | 4.63 |
| B2 | 4.63 |

Molecular target: PDLIM1, O00151
Assay: holdup assay
Parameters: key: below the threshold = too weak to quantify, mostly under pKd 3.1 to 4
Conditions: plain residues with an end cap or a label only (N-terminal biotin on a linker: ado-ado)

Chain of PDLIM1, O00151 (O00151 1-87): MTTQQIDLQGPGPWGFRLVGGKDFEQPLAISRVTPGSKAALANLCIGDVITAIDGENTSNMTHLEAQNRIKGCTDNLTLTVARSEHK

| Binder | pKd |
| --- | --- |
| B1 | below the threshold |
| B2 | below the threshold |

Molecular target: ARHGEF12, Q9NZN5-2
Assay: holdup assay
Parameters: key: below the threshold = too weak to quantify, mostly under pKd 3.1 to 4
Conditions: plain residues with an end cap or a label only (N-terminal biotin on a linker: ado-ado)

Chain of ARHGEF12, Q9NZN5-2 (Q9NZN5 other isoform, or with tags, fused parts or gaps): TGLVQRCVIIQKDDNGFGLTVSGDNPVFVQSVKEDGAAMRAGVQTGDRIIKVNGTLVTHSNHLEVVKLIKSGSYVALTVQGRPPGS

| Binder | pKd |
| --- | --- |
| B1 | 4.58 |
| B2 | below the threshold |

Molecular target: T9, MPP7, Q5T2T1
T9 sequence (Q5T2T1 134-230, limits assumed, looked up): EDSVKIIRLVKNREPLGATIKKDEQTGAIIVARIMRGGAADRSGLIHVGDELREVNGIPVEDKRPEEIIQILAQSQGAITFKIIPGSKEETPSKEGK
Assay: holdup assay
Parameters: key: below the threshold = too weak to quantify, mostly under pKd 3.1 to 4
Conditions: plain residues with an end cap or a label only (N-terminal biotin on a linker: ado-ado)

| Binder | pKd |
| --- | --- |
| B1 | below the threshold |
| B2 | below the threshold |

Molecular target: MAGI2_6, Q86UL8
Assay: holdup assay
Parameters: key: below the threshold = too weak to quantify, mostly under pKd 3.1 to 4
Conditions: plain residues with an end cap or a label only (N-terminal biotin on a linker: ado-ado)

Chain of MAGI2_6, Q86UL8 (Q86UL8 1141-1229): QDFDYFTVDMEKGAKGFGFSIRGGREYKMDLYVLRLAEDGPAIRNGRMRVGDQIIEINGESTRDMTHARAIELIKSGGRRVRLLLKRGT

| Binder | pKd |
| --- | --- |
| B1 | 4.43 |
| B2 | 3.67 |

Molecular target: T10, GRIP1_5, Q9Y3R0
T10 sequence (Q9Y3R0 568-668, limits assumed, looked up): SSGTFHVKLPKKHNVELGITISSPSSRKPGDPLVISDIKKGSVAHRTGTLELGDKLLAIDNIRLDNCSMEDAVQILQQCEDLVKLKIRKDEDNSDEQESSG
Assay: holdup assay
Parameters: key: below the threshold = too weak to quantify, mostly under pKd 3.1 to 4
Conditions: plain residues with an end cap or a label only (N-terminal biotin on a linker: ado-ado)

| Binder | pKd |
| --- | --- |
| B1 | below the threshold |
| B2 | below the threshold |

Molecular target: T11, NHERF3_3, Q5T2W1
T11 sequence (Q5T2W1 238-333, limits assumed, looked up): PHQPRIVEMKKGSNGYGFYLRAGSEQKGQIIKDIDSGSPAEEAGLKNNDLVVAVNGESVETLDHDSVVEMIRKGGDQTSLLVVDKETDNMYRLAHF
Assay: holdup assay
Parameters: key: below the threshold = too weak to quantify, mostly under pKd 3.1 to 4
Conditions: plain residues with an end cap or a label only (N-terminal biotin on a linker: ado-ado)

| Binder | pKd |
| --- | --- |
| B1 | below the threshold |
| B2 | below the threshold |

Molecular target: T12, ARHGAP21, Q5T5U3
T12 sequence (Q5T5U3 45-169, limits assumed, looked up): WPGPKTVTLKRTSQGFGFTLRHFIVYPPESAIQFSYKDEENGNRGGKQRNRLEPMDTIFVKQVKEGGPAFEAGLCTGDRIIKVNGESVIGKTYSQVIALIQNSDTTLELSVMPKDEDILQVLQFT
Assay: holdup assay
Parameters: key: below the threshold = too weak to quantify, mostly under pKd 3.1 to 4
Conditions: plain residues with an end cap or a label only (N-terminal biotin on a linker: ado-ado)

| Binder | pKd |
| --- | --- |
| B1 | 3.92 |
| B2 | 3.91 |

Molecular target: T13, SNTB1, Q13884
T13 sequence (Q13884 107-205, limits assumed, looked up): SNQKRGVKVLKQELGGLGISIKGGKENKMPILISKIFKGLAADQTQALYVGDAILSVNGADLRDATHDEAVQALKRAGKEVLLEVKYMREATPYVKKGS
Assay: holdup assay
Parameters: key: below the threshold = too weak to quantify, mostly under pKd 3.1 to 4
Conditions: plain residues with an end cap or a label only (N-terminal biotin on a linker: ado-ado)

| Binder | pKd |
| --- | --- |
| B1 | 4.52 |
| B2 | 5.66 |

Molecular target: MAST2, Q6P0Q8
Assay: holdup assay
Parameters: key: below the threshold = too weak to quantify, mostly under pKd 3.1 to 4
Conditions: plain residues with an end cap or a label only (N-terminal biotin on a linker: ado-ado)

Chain of MAST2, Q6P0Q8 (Q6P0Q8 1099-1202): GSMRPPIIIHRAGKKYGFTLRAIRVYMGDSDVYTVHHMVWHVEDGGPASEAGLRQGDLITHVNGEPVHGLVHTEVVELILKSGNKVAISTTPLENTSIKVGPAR

| Binder | pKd |
| --- | --- |
| B1 | 4.76 |
| B2 | 4.53 |

Molecular target: GRIP2_4, Q9C0E4
Assay: holdup assay
Parameters: key: below the threshold = too weak to quantify, mostly under pKd 3.1 to 4
Conditions: plain residues with an end cap or a label only (N-terminal biotin on a linker: ado-ado)

Chain of GRIP2_4, Q9C0E4 (Q9C0E4 446-548): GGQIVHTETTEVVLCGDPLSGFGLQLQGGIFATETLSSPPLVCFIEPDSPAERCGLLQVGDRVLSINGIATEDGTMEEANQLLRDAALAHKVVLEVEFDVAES

| Binder | pKd |
| --- | --- |
| B1 | below the threshold |
| B2 | below the threshold |

Molecular target: T14, MPP2, Q14168
T14 sequence (Q14168 180-250, limits assumed, looked up): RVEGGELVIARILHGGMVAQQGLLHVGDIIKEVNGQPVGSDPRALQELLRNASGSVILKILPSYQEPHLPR
Assay: holdup assay
Parameters: key: below the threshold = too weak to quantify, mostly under pKd 3.1 to 4
Conditions: plain residues with an end cap or a label only (N-terminal biotin on a linker: ado-ado)

| Binder | pKd |
| --- | --- |
| B1 | below the threshold |
| B2 | below the threshold |
